Measurements from the Human Domainome abundance scans (Beltran et al. 2025).
± gives the uncertainty stated by the source.

B1: CD2-associated protein, residues 109 to 169; numbered along this chain, Q9Y5K6 (parent)
chain: KKRQCKVLFEYIPQNEDELELKVGDIIDINEEVEEGWWSGTLNNKLGLFPSNFVKELEVTD

Variants of: B1
Assay: abundance fitness (aPCA) (normalised: wild type 0, dead -1); higher = more abundant; growth selection in yeast, the domain comes from the species named
Conditions: Homo sapiens

Variant | abundance fitness
Y11R | 0.072 ± 0.094
C5N | -0.596 ± 0.083
G40F | -0.477 ± 0.16
R3D | -0.283 ± 0.13
P50S | -0.465 ± 0.13
G24F | -0.57 ± 0.32
N30E | 0.302 ± 0.24
S39H | -0.085 ± 0.15
E32R | -0.407 ± 0.25
V33S | -0.186 ± 0.16
L46S | 0.113 ± 0.044
T41H | -0.158 ± 0.25
R3W | -0.372 ± 0.26
V7E | -0.999 ± 0.37
E31R | 0.039 ± 0.099
K6E | -0.06 ± 0.11
K55P | -1.05 ± 0.31
G24S | -0.611 ± 0.17
L21I | -0.4 ± 0.16
F53Q | -0.2 ± 0.13
E18Y | -0.582 ± 0.22
E10R | -0.126 ± 0.066
I26L | -0.245 ± 0.096
N43Y | -0.553 ± 0.34

Variant | abundance fitness
N30R | -0.171 ± 0.11
K45Y | -0.273 ± 0.3
E34G | -0.067 ± 0.16
P13W | -0.881 ± 0.29
L8S | -0.082 ± 0.12
C5W | -0.743 ± 0.24
I27T | -0.902 ± 0.27
F53H | 0.054 ± 0.22
D25Q | -0.39 ± 0.34
I26H | -0.391 ± 0.44
E20L | -0.157 ± 0.16
S39K | 0.166 ± 0.091
G36W | -0.59 ± 0.21
S39T | -0.06 ± 0.084
E35L | -0.452 ± 0.13
I12P | -0.159 ± 0.37
P50T | -0.367 ± 0.16
K1R | -0.181 ± 0.12
I12S | -0.138 ± 0.13
L57C | -0.041 ± 0.33
K45T | -0.458 ± 0.21
E32I | -0.28 ± 0.41
L48T | -0.021 ± 0.084
K45L | -0.638 ± 0.14

Variant | abundance fitness
L42C | -0.174 ± 0.16
T60H | 0.045 ± 0.16
N43Q | -0.275 ± 0.15
N52E | 0.053 ± 0.086
N52M | -0.12 ± 0.17
L8K | -0.304 ± 0.14
V7Q | 0.1 ± 0.16
E32L | -0.689 ± 0.42
E10L | -0.841 ± 0.16
D25P | -0.401 ± 0.19
V23R | -0.092 ± 0.14
Q14V | -0.338 ± 0.27
F53Y | 0.019 ± 0.22
D61H | 0.346 ± 0.23
E31L | -0.367 ± 0.12
N43S | -0.337 ± 0.11
P13S | -0.444 ± 0.21
W38Y | 0.109 ± 0.13
G47Q | -0.696 ± 0.17
L46N | 0.074 ± 0.056
D17T | -0.298 ± 0.46
K6N | -0.472 ± 0.09
L46E | 0.138 ± 0.11
W38G | -0.569 ± 0.16

Variant | abundance fitness
D25M | -0.771 ± 0.49
D28Y | -0.271 ± 0.16
V59W | -0.117 ± 0.079
I29L | -0.219 ± 0.077
V54Q | -0.546 ± 0.41
N15K | -0.041 ± 0.18
D61L | -0.301 ± 0.14
K45S | -0.603 ± 0.15
K55D | -0.313 ± 0.25
L19K | -0.727 ± 0.43
K6M | 0.151 ± 0.08
N44V | -0.795 ± 0.25
F53M | 0.057 ± 0.13
Y11K | -0.415 ± 0.37
I26Q | -0.744 ± 0.25
S51P | -0.429 ± 0.12
D61M | -0.106 ± 0.24
E10D | 0.144 ± 0.14
E58S | -0.035 ± 0.1
E35R | -0.15 ± 0.12
D17F | -0.249 ± 0.47
E10N | -0.064 ± 0.16
K2F | -0.51 ± 0.42
K22L | -0.952 ± 0.38

Variant | abundance fitness
R3Y | -0.58 ± 0.11
L57K | -0.263 ± 0.15
E34Y | -0.126 ± 0.22
C5E | -0.688 ± 0.32
E56S | -0.32 ± 0.094
N15G | -0.19 ± 0.14
E31M | -0.26 ± 0.17
D17M | 0.001 ± 0.26
E58Q | 0.202 ± 0.19
R3K | -0.33 ± 0.2
V23T | -0.144 ± 0.18
L42P | -0.732 ± 0.41
G47L | -0.922 ± 0.16
L8Q | -0.437 ± 0.23
I12T | 0.106 ± 0.14
L19H | -0.73 ± 0.36
K45A | -0.779 ± 0.21
E34K | 0.299 ± 0.3
C5K | -0.632 ± 0.19
L46C | 0.127 ± 0.058
E10M | -0.579 ± 0.34
I26S | -0.623 ± 0.12
N52S | -0.02 ± 0.079
E35Q | -0.153 ± 0.19

Variant | abundance fitness
V59H | -0.012 ± 0.13
L48H | -0.291 ± 0.11
N30P | -0.438 ± 0.32
E35C | 0.015 ± 0.15
D61C | -0.561 ± 0.23
F9D | -0.097 ± 0.17
Y11L | -0.951 ± 0.21
V7P | -1.05 ± 0.26
K1V | -0.367 ± 0.26
T41F | -0.274 ± 0.2
L48C | -0.094 ± 0.13
N15Q | -0.26 ± 0.13
V33G | -0.483 ± 0.43
E56D | -0.505 ± 0.24
L48R | 0.273 ± 0.074
N44S | -0.261 ± 0.18
G47W | -0.759 ± 0.18
N43G | -0.09 ± 0.13
K1F | -0.351 ± 0.27
L57R | -0.64 ± 0.15
V54F | -0.416 ± 0.33
G40W | -0.668 ± 0.16
F49T | -0.921 ± 0.29
L19A | -0.906 ± 0.43

Variant | abundance fitness
V59C | -0.123 ± 0.13
G40S | -0.92 ± 0.24
K22G | -0.182 ± 0.27
K55L | -0.29 ± 0.064
R3S | -0.364 ± 0.061
V33F | -0.242 ± 0.23
E56K | 0.16 ± 0.14
G24T | -0.559 ± 0.27
K1S | -0.249 ± 0.13
I29P | -0.625 ± 0.21
L48E | -0.539 ± 0.14
K55G | -0.131 ± 0.083
Q14H | -0.509 ± 0.42
T41W | 0.016 ± 0.17
I26K | -0.624 ± 0.17
I12K | -0.063 ± 0.19
Y11A | -0.539 ± 0.17
T60M | -0.257 ± 0.18
Q4W | -0.117 ± 0.25
N43L | -0.489 ± 0.1
N43E | -0.333 ± 0.27
I12R | -0.253 ± 0.11
L46V | 0.047 ± 0.071
